Measured values: the supplement of paper PMC10567573

B1: SNX8 (parent)
chain: VVLKLFLSFSGSDVQNKLKESAQC
B2: ZBED2 (parent)
chain: RAGHHPNQYATCRLCGRQVSRGPG
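Further: lentivirally expressed fusions sorted by FACS into six bins by GFP to DsRed ratio, PSI derived from sequencing read proportions per bin multiplied by bin number.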

Variants of: B1
Test: protein stability index of a GFP-peptide fusion (GPS, HEK-293T) (PSI 1-6); higher = more stable
Details: c terminus: a fixed tail appended
VVLKLFLSFSGSDVQNKLKLSAQC gave a protein stability index of 1.89.
Work on VVLKLFLSFSGSDVQNKLKMSAQC yielded a protein stability index of 2.13.
Work on VVLKLFLSFSGSDVQNKLKSSAQC yielded a protein stability index of 3.97.
Work on VVLKLFLSFSGSDVQNKLKYSAQC yielded a protein stability index of 3.73.
VVLKLFLSFSGSDVQNKLKNSAQC showed a protein stability index of 3.6.
Variant VVLKLFLSFSGSDVQNKLKQSAQC has a protein stability index of 2.37.
For VVLKLFLSFSGSDVQNKLKEWAQC, the protein stability index was 2.66.
With VVLKLFLSFSGSDVQNKLKEFAQC the protein stability index was 1.88.
In the case of VVLKLFLSFSGSDVQNKLKEDAQC, the protein stability index is reported as 1.56.
VVLKLFLSFSGSDVQNKLKENAQC gave a protein stability index of 2.55.
VVLKLFLSFSGSDVQNKLKEMAQC gave a protein stability index of 2.03.
Variant VVLKLFLSFSGSDVQNKLKEYAQC has a protein stability index of 2.66.
VVLKLFLSFSGSDVQNKLKEVAQC showed a protein stability index of 2.46.
For VVLKLFLSFSGSDVQNKLKEKAQC, the protein stability index was 2.25.
With VVLKLFLSFSGSDVQNKLKESYQC the protein stability index was 1.93.
VVLKLFLSFSGSDVQNKLKESFQC showed a protein stability index of 3.23.
For VVLKLFLSFSGSDVQNKLKESTQC, the protein stability index was 1.76.
VVLKLFLSFSGSDVQNKLKESDQC gave a protein stability index of 4.82.
VVLKLFLSFSGSDVQNKLKESEQC showed a protein stability index of 3.99.
Variant VVLKLFLSFSGSDVQNKLKESMQC has a protein stability index of 3.48.
In the case of VVLKLFLSFSGSDVQNKLKESGQC, the protein stability index is reported as 3.13.
VVLKLFLSFSGSDVQNKLKESWQC gave a protein stability index of 3.87.
In the case of VVLKLFLSFSGSDVQNKLKESCQC, the protein stability index is reported as 2.05.
Work on VVLKLFLSFSGSDVQNKLKESKQC yielded a protein stability index of 2.18.
In the case of VVLKLFLSFSGSDVQNKLKESAQL, the protein stability index is reported as 5.49.
With VVLKLFLSFSGSDVQNKLKESAQP the protein stability index was 3.78.
VVLKLFLSFSGSDVQNKLKESAQF showed a protein stability index of 4.02.
In the case of VVLKLFLSFSGSDVQNKLKESAQH, the protein stability index is reported as 2.17.
Work on VVLKLFLSFSGSDVQNKLKESAQN yielded a protein stability index of 2.99.
Variant VVLKLFLSFSGSDVQNKLKESAQS has a protein stability index of 3.35.
For VVLKLFLSFSGSDVQNKLKESAQV, the protein stability index was 2.91.
VVLKLFLSFSGSDVQNKLKESAQW showed a protein stability index of 1.84.
VVLKLFLSFSGSDVQNKLKESAQY showed a protein stability index of 3.1.
In the case of VVLKLFLSFSGSDVQNKLKESAQD, the protein stability index is reported as 1.9.
VVLKLFLSFSGSDVQNKLKESASC gave a protein stability index of 1.46.
With VVLKLFLSFSGSDVQNKLKESAIC the protein stability index was 3.23.
VVLKLFLSFSGSDVQNKLKESATC gave a protein stability index of 2.48.
VVLKLFLSFSGSDVQNKLKESARC showed a protein stability index of 2.8.
For VVLKLFLSFSGSDVQNKLKESALC, the protein stability index was 3.31.
In the case of VVLKLFLSFSGSDVQNKLKESAAC, the protein stability index is reported as 3.04.
In the case of VVLKLFLSFSGSDVQNKLKESAFC, the protein stability index is reported as 1.71.
VVLKLFLSFSGSDVQNKLKESACC showed a protein stability index of 3.1.
With VVLKLFLSFSGSDVQNKLKESAKC the protein stability index was 2.59.
In the case of VVLKLFLSFSGSDVQNKLKESADC, the protein stability index is reported as 2.27.
Variant VVLKLFLSFSGSDVQNKLKESAYC has a protein stability index of 2.52.

Variants of: B2
Test: as above
Details: c terminus: a fixed tail appended
With RAGIHPNQYATCRLCGRQVSRGPG the protein stability index was 3.21.
RAGGHPNQYATCRLCGRQVSRGPG showed a protein stability index of 2.21.
For RAGAHPNQYATCRLCGRQVSRGPG, the protein stability index was 2.76.
In the case of RAGEHPNQYATCRLCGRQVSRGPG, the protein stability index is reported as 2.16.
Work on RAGCHPNQYATCRLCGRQVSRGPG yielded a protein stability index of 1.84.
RAGDHPNQYATCRLCGRQVSRGPG gave a protein stability index of 2.09.
RACHHPNQYATCRLCGRQVSRGPG showed a protein stability index of 4.01.
For RADHHPNQYATCRLCGRQVSRGPG, the protein stability index was 2.58.
For RAMHHPNQYATCRLCGRQVSRGPG, the protein stability index was 2.52.
RALHHPNQYATCRLCGRQVSRGPG showed a protein stability index of 2.27.
In the case of RAIHHPNQYATCRLCGRQVSRGPG, the protein stability index is reported as 1.55.
RAQHHPNQYATCRLCGRQVSRGPG showed a protein stability index of 1.75.
Variant RASHHPNQYATCRLCGRQVSRGPG has a protein stability index of 1.57.
RARHHPNQYATCRLCGRQVSRGPG gave a protein stability index of 2.09.
Variant RAKHHPNQYATCRLCGRQVSRGPG has a protein stability index of 2.66.
With RATHHPNQYATCRLCGRQVSRGPG the protein stability index was 2.19.
RAAHHPNQYATCRLCGRQVSRGPG gave a protein stability index of 2.29.
For RAVHHPNQYATCRLCGRQVSRGPG, the protein stability index was 1.64.
Work on RAHHHPNQYATCRLCGRQVSRGPG yielded a protein stability index of 1.25.
In the case of RAEHHPNQYATCRLCGRQVSRGPG, the protein stability index is reported as 2.06.
Variant RAWHHPNQYATCRLCGRQVSRGPG has a protein stability index of 3.31.
RHGHHPNQYATCRLCGRQVSRGPG showed a protein stability index of 1.78.
REGHHPNQYATCRLCGRQVSRGPG showed a protein stability index of 2.33.
RSGHHPNQYATCRLCGRQVSRGPG showed a protein stability index of 2.04.
With RIGHHPNQYATCRLCGRQVSRGPG the protein stability index was 2.15.
Variant RDGHHPNQYATCRLCGRQVSRGPG has a protein stability index of 2.08.
In the case of RYGHHPNQYATCRLCGRQVSRGPG, the protein stability index is reported as 2.04.
For RMGHHPNQYATCRLCGRQVSRGPG, the protein stability index was 1.97.
Work on RFGHHPNQYATCRLCGRQVSRGPG yielded a protein stability index of 2.36.
Work on RNGHHPNQYATCRLCGRQVSRGPG yielded a protein stability index of 2.11.
RPGHHPNQYATCRLCGRQVSRGPG gave a protein stability index of 1.73.
Variant RKGHHPNQYATCRLCGRQVSRGPG has a protein stability index of 1.54.
For RQGHHPNQYATCRLCGRQVSRGPG, the protein stability index was 1.4.
In the case of RGGHHPNQYATCRLCGRQVSRGPG, the protein stability index is reported as 2.1.
With RLGHHPNQYATCRLCGRQVSRGPG the protein stability index was 2.19.
In the case of SAGHHPNQYATCRLCGRQVSRGPG, the protein stability index is reported as 1.86.
With VAGHHPNQYATCRLCGRQVSRGPG the protein stability index was 1.33.
Work on PAGHHPNQYATCRLCGRQVSRGPG yielded a protein stability index of 1.04.
For KAGHHPNQYATCRLCGRQVSRGPG, the protein stability index was 1.68.
Variant TAGHHPNQYATCRLCGRQVSRGPG has a protein stability index of 2.07.
In the case of NAGHHPNQYATCRLCGRQVSRGPG, the protein stability index is reported as 2.85.
With LAGHHPNQYATCRLCGRQVSRGPG the protein stability index was 1.78.
DAGHHPNQYATCRLCGRQVSRGPG gave a protein stability index of 2.57.
For QAGHHPNQYATCRLCGRQVSRGPG, the protein stability index was 1.5.
IAGHHPNQYATCRLCGRQVSRGPG gave a protein stability index of 2.13.
Variant EAGHHPNQYATCRLCGRQVSRGPG has a protein stability index of 2.53.
For CAGHHPNQYATCRLCGRQVSRGPG, the protein stability index was 3.55.
For MAGHHPNQYATCRLCGRQVSRGPG, the protein stability index was 1.79.
With HAGHHPNQYATCRLCGRQVSRGPG the protein stability index was 2.13.
